# Laboratory results as given in patent US20260242735A1 (UNIVERSIT T BASEL, published 2026).
# B1: Refmab #6 (antibody, V domains shown)
# VH: QVQLQQPGAEVVKPGASVKMSCKASGYTFTSYYIHWIKQTPGQGLEWVGVIYPGNDDISYNQKFQGKATLTADKSSTTAYMQLSSLTSEDSAVYYCAREVRLRYFDVWGQGTTVTVSS
# VL: EIVLTQSPGSLAVSPGERVTMSCKSSQSVFFSSSQKNYLAWYQQIPGQSPRLLIYWASTRESGVPDRFTGSGSGTDFTLTISSVQPEDLAIYYCHQYLSSRTFGQGTKLEIK
# notes: The alanine scan used IgG or Fab
# B2: Refmab #6 (antibody, V domains shown)
# VH: B1 VH
# VL: B1 VL
# notes: Full-length format is human IgG1 Fc silent (PG-LALA); The alanine scan used IgG or Fab
# B3: Refmab #4 Fab fragment (Fab, V domains shown)
# VH: QVQLVQSGAEVKKPGESVKVSCKASGYTFTNYGMNWVKQAPGQGLEWMGWINTYTGEPTYADKFQGRVTMTTDTSTSTAYMEIRNLGGDDTAVYYCARWSWSDGYYVYFDYWGQGTSVTVSS
# VL: DIVMTQSPDSLTVSLGERTTINCKSSQSVLDSSTNKNSLAWYQQKPGQPPKLLLSWASTRESGIPDRFSGSGSGTDFTLTIDSPQPEDSATYYCQQSAHFPITFGQGTRLEIK
# B4: Refmab #3 Fab fragment (Fab, V domains shown)
# VH: QVQLVQSGAEVKKPGSSVKVSCKASGYTFTDYNMHWVRQAPGQGLEWIGYIYPYNGGTGYNQKFKSKATITADESTNTAYMELSSLRSEDTAVYYCARGRPAMDYWGQGTLVTVSS
# VL: DIQMTQSPSSLSASVGDRVTITCRASESVDNYGISFMNWFQQKPGKAPKLLIYAASNQGSGVPSRFSGSGSGTDFTLTISSLQPDDFATYYCQQSKEVPWTFGQGTKVEIK
# B5: Refmab #2 Fab fragment (Fab, V domains shown)
# VH: QVQLVQSGAEVKKPGSSVKVSCKASGGTFSDYAISWVRQAPGQGLEWMGRIIPILGVADYAQKFQGRVTITADKSTRTAYMELSSLRSEDTAVYYCARNWADAFDIWGQGTMVTVSS
# VL: DIQLTQSPSSLSASVGDRVTITCRASQGISSVLAWYQQKPGKAPKLLIYDASSLESGVPSRFSGSGSGTDFTLTISSLQPEDFATYYCQQFDSSITFGQGTKLEIK
# B6: Refmab #5 Fab fragment (Fab, V domains shown)
# VH: QVQLVQSGAEVKKPGASVKVSCKASGYTFTNYDINWVRQAPGQGLEWIGWIYPGDGSTKYNEKFKAKATLTADTSTSTAYMELRSLRSDDTAVYYCASGYEDAMDYWGQGTTVTVSS
# VL: DIQMTQSPSSLSASVGDRVTINCKASQDINSYLSWFQQKPGKAPKTLIYRANRLVDGVPSRFSGSGSGQDYTLTISSLQPEDFATYYCLQYDEFPLTFGGGTKVEIK
# B7: Refmab #5 (antibody, V domains shown)
# VH: B6 VH
# VL: B6 VL
# notes: as for B2
# Legend:
# [1] = molecular target: human CD33 V29A (human, UniProt P20138 18-364); assay: flow cytometry, alanine scan
# Description: (§1) An alanine scan on human CD33 was performed to the determine the residues on CD33 that are involved in binding to the antibodies investigated. […] Briefly, a mutation library of CD33 was created by high-throughput, site-directed mutagenesis. Each residue was individually mutated to alanine, with alanine codons mutated to serine. The mutant library was arrayed in 384-well microplates and transiently transfected into HEK293-T. Following transfection, cells were incubated with the indicated antibodies (IgG or Fab) at concentrations pre-determined using an independent immunofluorescence titration curve on wild type CD33. […] Binding of each antibody to each mutant clone was determined in duplicates. For each point, background fluorescence was subtracted from the raw data, which were then normalized to antibody reactivity with wild type CD33.
# (§2) Critical residues for antibody binding (outlined in dark grey) were residues whose mutations led to a binding of the test Abs of less than 20%. Additional secondary residues (outlined in light grey) were identified that led to a binding of the test Abs of between 20 and 40% as compared to the wild type CD33.
# [2] = molecular target: human CD33 L38A (human, UniProt P20138 18-364); assay: flow cytometry, alanine scan
# Description: as §1, §2
# [3] = molecular target: human CD33 P40A (human, UniProt P20138 18-364); assay: flow cytometry, alanine scan
# Description: as §1, §2
# [4] = molecular target: human CD33 T30A (human, UniProt P20138 18-364); assay: flow cytometry, alanine scan
# Description: as §1, §2
# [5] = molecular target: human CD33 E33A (human, UniProt P20138 18-364); assay: flow cytometry, alanine scan
# Description: as §1, §2
# [6] = molecular target: human CD33 H45A (human, UniProt P20138 18-364); assay: flow cytometry, alanine scan
# Description: as §1, §2
# [7] = molecular target: human CD33 T42A (human, UniProt P20138 18-364); assay: flow cytometry, alanine scan
# Description: as §1, §2
# [8] = molecular target: human CD33 S28A (human, UniProt P20138 18-364); assay: flow cytometry, alanine scan
# Description: as §1, §2
# [9] = molecular target: human CD33 D18A (human, UniProt P20138 19-364); assay: flow cytometry, alanine scan
# Description: as §1, §2
# [10] = molecular target: human CD33 C41A (human, UniProt P20138 18-364); assay: flow cytometry, alanine scan
# Description: as §1, §2
# [11] = molecular target: human CD33 F43A (human, UniProt P20138 18-364); assay: flow cytometry, alanine scan
# Description: as §1, §2
# [12] = molecular target: human CD33 N20A (human, UniProt P20138 18-364); assay: flow cytometry, alanine scan
# Description: as §1, §2
# [13] = molecular target: human CD33 V39A (human, UniProt P20138 18-364); assay: flow cytometry, alanine scan
# Description: as §1, §2
# [14] = molecular target: human CD33 Q32A (human, UniProt P20138 18-364); assay: flow cytometry, alanine scan
# Description: as §1, §2
# [15] = molecular target: human CD33 G34A (human, UniProt P20138 18-364); assay: flow cytometry, alanine scan
# Description: as §1, §2
# [16] = molecular target: human CD33 W22A (human, UniProt P20138 18-364); assay: flow cytometry, alanine scan
# Description: as §1, §2
# [17] = molecular target: human CD33 F21A (human, UniProt P20138 18-364); assay: flow cytometry, alanine scan
# Description: as §1, §2
# [18] = molecular target: human CD33 E27A (human, UniProt P20138 18-364); assay: flow cytometry, alanine scan
# Description: as §1, §2
# [19] = molecular target: human CD33 C36A (human, UniProt P20138 18-364); assay: flow cytometry, alanine scan
# Description: as §1, §2
# [20] = molecular target: human CD33 V31A (human, UniProt P20138 18-364); assay: flow cytometry, alanine scan
# Description: as §1, §2
# [21] = molecular target: human CD33 L35A (human, UniProt P20138 18-364); assay: flow cytometry, alanine scan
# Description: as §1, §2
# [22] = molecular target: human CD33 V37A (human, UniProt P20138 18-364); assay: flow cytometry, alanine scan
# Description: as §1, §2
# [23] = molecular target: human CD33 L23A (human, UniProt P20138 18-364); assay: flow cytometry, alanine scan
# Description: as §1, §2
# [24] = molecular target: human CD33 P19A (human, UniProt P20138 18-364); assay: flow cytometry, alanine scan
# Description: as §1, §2
# [25] = molecular target: T1, human CD33 T363A (human, UniProt P20138 18-364); assay: alanine scan; flow cytometry, HEK293-T cells expressing the mutant; normalised to WT CD33;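 note: antibodies (IgG or Fab) at doses pre-set by titration on wild-type CD33, duplicate readings with background fluorescence subtracted, mutants made by site-directed alanine substitution (alanine changed to serine)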
# T1 construct: Alanine-scan mutant clone of CD33 transiently transfected into HEK293-T cells
# Description: as §1, §2
# [26] = molecular target: T2, human CD33 S355A (human, UniProt P20138 18-364); assay: as above
# T2 construct: Alanine-scan mutant clone of CD33 transiently transfected into HEK293-T cells
# Description: as §1, §2
# [27] = molecular target: T3, human CD33 Y358A (human, UniProt P20138 18-364); assay: as above
# T3 construct: Alanine-scan mutant clone of CD33 transiently transfected into HEK293-T cells
# Description: as §1, §2
# [28] = molecular target: T4, human CD33 V361A (human, UniProt P20138 18-364); assay: as above
# T4 construct: Alanine-scan mutant clone of CD33 transiently transfected into HEK293-T cells
# Description: as §1, §2
# [29] = molecular target: T5, human CD33 K352A (human, UniProt P20138 18-364); assay: as above
# T5 construct: Alanine-scan mutant clone of CD33 transiently transfected into HEK293-T cells
# Description: as §1, §2
# [30] = molecular target: T6, human CD33 N349A (human, UniProt P20138 18-364); assay: as above
# T6 construct: Alanine-scan mutant clone of CD33 transiently transfected into HEK293-T cells
# Description: as §1, §2
# [31] = molecular target: T7, human CD33 P350A (human, UniProt P20138 18-364); assay: as above
# T7 construct: Alanine-scan mutant clone of CD33 transiently transfected into HEK293-T cells
# Description: as §1, §2
# [32] = molecular target: T8, human CD33 E360A (human, UniProt P20138 18-364); assay: as above
# T8 construct: Alanine-scan mutant clone of CD33 transiently transfected into HEK293-T cells
# Description: as §1, §2
# [33] = molecular target: T9, human CD33 H346A (human, UniProt P20138 18-364); assay: as above
# T9 construct: Alanine-scan mutant clone of CD33 transiently transfected into HEK293-T cells
# Description: as §1, §2
# [34] = molecular target: T10, human CD33 Q364A (human, UniProt P20138 18-363); assay: as above
# T10 construct: Alanine-scan mutant clone of CD33 transiently transfected into HEK293-T cells
# Description: as §1, §2
# [35] = molecular target: T11, human CD33 S351A (human, UniProt P20138 18-364); assay: as above
# T11 construct: Alanine-scan mutant clone of CD33 transiently transfected into HEK293-T cells
# Description: as §1, §2
# [36] = molecular target: T12, human CD33 T356A (human, UniProt P20138 18-364); assay: as above
# T12 construct: Alanine-scan mutant clone of CD33 transiently transfected into HEK293-T cells
# Description: as §1, §2
# [37] = molecular target: T13, human CD33 E357A (human, UniProt P20138 18-364); assay: as above
# T13 construct: Alanine-scan mutant clone of CD33 transiently transfected into HEK293-T cells
# Description: as §1, §2
# [38] = molecular target: T14, human CD33 D353A (human, UniProt P20138 18-364); assay: as above
# T14 construct: Alanine-scan mutant clone of CD33 transiently transfected into HEK293-T cells
# Description: as §1, §2
# [39] = molecular target: T15, human CD33 T354A (human, UniProt P20138 18-364); assay: as above
# T15 construct: Alanine-scan mutant clone of CD33 transiently transfected into HEK293-T cells
# Description: as §1, §2
# [40] = molecular target: T16, human CD33 R362A (human, UniProt P20138 18-364); assay: as above
# T16 construct: Alanine-scan mutant clone of CD33 transiently transfected into HEK293-T cells
# Description: as §1, §2
# [41] = molecular target: T17, human CD33 M348A (human, UniProt P20138 18-364); assay: as above
# T17 construct: Alanine-scan mutant clone of CD33 transiently transfected into HEK293-T cells
# Description: as §1, §2
# [42] = molecular target: T18, human CD33 S359A (human, UniProt P20138 18-364); assay: as above
# T18 construct: Alanine-scan mutant clone of CD33 transiently transfected into HEK293-T cells
# Description: as §1, §2
# [43] = molecular target: T19, human CD33 G347A (human, UniProt P20138 18-364); assay: as above
# T19 construct: Alanine-scan mutant clone of CD33 transiently transfected into HEK293-T cells
# Description: as §1, §2
# [44] = molecular target: T20, human wild-type CD33 (human, UniProt P20138 18-364); assay: flow cytometry, Fab at 0.50 ug/ml on HEK293-T cells expressing CD33 against vector alone
# T20 construct: also called SIGLEC3; P67
# Description: (§3) Serial dilutions of each Fab were tested for immunoreactivity against cells expressing wild-type CD33 or vector alone. The optimal screening concentration for the Fabs was determined based on the raw signal values and signal-to-background calculations. Each point represents the mean of four replicates.
# [45] = molecular target: T20, human wild-type CD33; assay: flow cytometry, Fab at 1.00 ug/ml on HEK293-T cells expressing CD33 against vector alone
# Description: as §3
# T20 sequence (P20138 18-364 limits assumed): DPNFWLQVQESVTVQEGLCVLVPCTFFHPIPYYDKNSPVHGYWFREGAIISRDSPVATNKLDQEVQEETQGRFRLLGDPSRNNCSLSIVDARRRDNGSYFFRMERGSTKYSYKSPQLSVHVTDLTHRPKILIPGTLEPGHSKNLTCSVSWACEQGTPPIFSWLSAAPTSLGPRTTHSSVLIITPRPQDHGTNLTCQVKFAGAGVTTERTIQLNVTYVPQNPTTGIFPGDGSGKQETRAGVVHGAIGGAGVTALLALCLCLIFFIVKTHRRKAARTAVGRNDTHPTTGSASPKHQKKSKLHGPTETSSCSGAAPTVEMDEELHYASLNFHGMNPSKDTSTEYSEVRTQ
# T2 sequence (P20138 18-364 S355A limits assumed): as the sequence (P20138 18-364 limits assumed) above, with S338A counted along it
# T6 sequence (P20138 18-364 N349A limits assumed): as the sequence (P20138 18-364 limits assumed) above, with N332A counted along it
# T11 sequence (P20138 18-364 S351A limits assumed): as the sequence (P20138 18-364 limits assumed) above, with S334A counted along it
# T15 sequence (P20138 18-364 T354A limits assumed): as the sequence (P20138 18-364 limits assumed) above, with T337A counted along it
# T8 sequence (P20138 18-364 E360A limits assumed): as the sequence (P20138 18-364 limits assumed) above, with E343A counted along it
# T17 sequence (P20138 18-364 M348A limits assumed): as the sequence (P20138 18-364 limits assumed) above, with M331A counted along it
# T12 sequence (P20138 18-364 T356A limits assumed): as the sequence (P20138 18-364 limits assumed) above, with T339A counted along it
# T10 sequence (P20138 18-364 Q364A limits assumed): as the sequence (P20138 18-364 limits assumed) above, with Q347A counted along it
# T3 sequence (P20138 18-364 Y358A limits assumed): as the sequence (P20138 18-364 limits assumed) above, with Y341A counted along it
# T7 sequence (P20138 18-364 P350A limits assumed): as the sequence (P20138 18-364 limits assumed) above, with P333A counted along it
# T18 sequence (P20138 18-364 S359A limits assumed): as the sequence (P20138 18-364 limits assumed) above, with S342A counted along it
# T4 sequence (P20138 18-364 V361A limits assumed): as the sequence (P20138 18-364 limits assumed) above, with V344A counted along it
# T19 sequence (P20138 18-364 G347A limits assumed): as the sequence (P20138 18-364 limits assumed) above, with G330A counted along it
binder,measurement,setting,value
B1,Mean % WT Binding,[1],112 % of WT
same,Mean % WT Binding,[2],105 % of WT
same,Mean % WT Binding,[3],55.5 % of WT
same,Mean % WT Binding,[4],104 % of WT
same,Mean % WT Binding,[5],90 % of WT
same,Mean % WT Binding,[6],87.8 % of WT
same,Mean % WT Binding,[7],36.6 % of WT
same,Mean % WT Binding,[8],89.4 % of WT
same,Mean % WT Binding,[9],39.5 % of WT
same,Mean % WT Binding,[10],4.5 % of WT
same,Mean % WT Binding,[11],34.6 % of WT
same,Mean % WT Binding,[12],92.9 % of WT
same,Mean % WT Binding,[13],79.2 % of WT
same,Mean % WT Binding,[14],91.3 % of WT
same,Mean % WT Binding,[15],100 % of WT
same,Mean % WT Binding,[16],3.8 % of WT
same,Mean % WT Binding,[17],88.1 % of WT
same,Mean % WT Binding,[18],92.6 % of WT
same,Mean % WT Binding,[19],110 % of WT
same,Mean % WT Binding,[20],105 % of WT
same,Mean % WT Binding,[21],97.2 % of WT
same,Mean % WT Binding,[22],111 % of WT
same,Mean % WT Binding,[23],41.4 % of WT
same,Mean % WT Binding,[24],87.4 % of WT
B2,Mean % WT Binding,[25],105 % WT binding
same,Mean % WT Binding,[26],98.9 % WT binding
same,Mean % WT Binding,[27],92 % WT binding
same,Mean % WT Binding,[28],76 % WT binding
same,Mean % WT Binding,[29],94.1 % WT binding
same,Mean % WT Binding,[30],91 % WT binding
same,Mean % WT Binding,[31],108 % WT binding
same,Mean % WT Binding,[32],93.5 % WT binding
same,Mean % WT Binding,[33],104 % WT binding
same,Mean % WT Binding,[34],94.4 % WT binding
same,Mean % WT Binding,[35],112 % WT binding
same,Mean % WT Binding,[36],99.5 % WT binding
same,Mean % WT Binding,[37],91.2 % WT binding
same,Mean % WT Binding,[38],92.1 % WT binding
same,Mean % WT Binding,[39],99.3 % WT binding
same,Mean % WT Binding,[40],107 % WT binding
same,Mean % WT Binding,[41],101 % WT binding
same,Mean % WT Binding,[42],82.5 % WT binding
same,Mean % WT Binding,[43],95.2 % WT binding
B3,Signal:Background,[44],33 signal:background ratio
B4,Signal:Background,[45],12 signal:background ratio
B5,Signal:Background,[45],7 signal:background ratio
B6,Signal:Background,[44],17 signal:background ratio
B7,Mean % WT Binding,[25],90.1 % WT binding
same,Mean % WT Binding,[26],126 % WT binding
same,Mean % WT Binding,[27],97.9 % WT binding
same,Mean % WT Binding,[28],84.5 % WT binding
same,Mean % WT Binding,[29],112 % WT binding
same,Mean % WT Binding,[30],84.9 % WT binding
same,Mean % WT Binding,[31],93.8 % WT binding
same,Mean % WT Binding,[32],107 % WT binding
same,Mean % WT Binding,[33],114 % WT binding
same,Mean % WT Binding,[34],107 % WT binding
same,Mean % WT Binding,[35],88.9 % WT binding
same,Mean % WT Binding,[36],89.3 % WT binding
same,Mean % WT Binding,[37],75.3 % WT binding
same,Mean % WT Binding,[38],74.6 % WT binding
same,Mean % WT Binding,[39],84.7 % WT binding
same,Mean % WT Binding,[40],101 % WT binding
same,Mean % WT Binding,[41],92.3 % WT binding
same,Mean % WT Binding,[42],87.2 % WT binding
same,Mean % WT Binding,[43],104 % WT binding
